Measurements as given in patent EP1908827A2.

How the values were obtained:
[1] = target: PP1c (type-1 protein phosphatase catalytic subunit, PP1c alpha); experiment: PP1c pull-down from extracts of cardiomyocytes co-infected with Ad-I-1 and AdPKCα dn, I-1 western blot quantified
[2] = target: PP1c (type-1 protein phosphatase catalytic subunit, PP1c alpha); experiment: PP1c pull-down from extracts of cardiomyocytes co-infected with Ad-I-1 and AdPKCα wt, I-1 western blot quantified

Inhibitor-1 (I-1), expressed from adenovirus in neonatal rat cardiomyocyte cultures
change in I-1 co-precipitated with PP1c (dominant negative PKCα co-expressed, against I-1 + β-gal) [1]: > 70 % increase
change in I-1 co-precipitated with PP1c (wildtype PKCα co-expressed, against I-1 + β-gal) [2]: 50 % reduction
